Our source for the IC50, pseudotyped lentivirus, Neutralization IC50, pseudotyped lentivirus and fold enhancement of neutralization IC50 upon trimerization (against SR16m) values is patent US20250179152A1.

This assay has as its target wild type Δ19 spike protein on pseudotyped lentivirus (SARS-CoV-2 (Wuhan-1)), P0DTC2. Nature of the assay: cell-based or functional assay.

B1: SR16m (designed binder)
chain: MGSSDLGKKLLEAARAGQDDEVRILMANGADVNALDLFGVTPLHLAAERGHLEIVEVLLKNGADVNAGDAFGRTPLHLAALGGHLEIVEVLLKNGADVNACDLYGVTPLHLAAGLGHLEIVEVLLKNGADVNAQDKFGKTAFDISIDNGNEDLAEILQSSSKLAAALEHHHHHH
As for B1, the IC50, pseudotyped lentivirus is 11 µM and the Neutralization IC50, pseudotyped lentivirus was 11.6 µM.

B2: SR22 (designed binder)
chain: MGSSHHHHHHSSGLVPRGSHMEQKLISEEDLGSDLGKKLLEAARAGQDDEVRILMANGADVNACDPSGITPLHLAADKGHLEIVEVLLKYGADVNAMDVWGRTPLHLAAFTGHLEIVEVLLKYGADVNACDLNGYTPLHLAAGRGHLEIVEVLLKNGAGVNAQDKFGKTAFDISIDNGNEDLAEILQSSS
In turn, B2 had a Neutralization IC50, pseudotyped lentivirus of 0.7 µM.

B3: FSR16m (designed binder)
chain: MGMEQKLISEEDLDGYIPEAPRDGQAYVRKDGEWVLLSTFLGGGGSLQGGGGSLQGSDLGKKLLEAARAGQDDEVRILMANGADVNALDLFGVTPLHLAAERGHLEIVEVLLKNGADVNAGDAFGRTPLHLAALGGHLEIVEVLLKNGADVNACDLYGVTPLHLAAGLGHLEIVEVLLKNGADVNAQDKFGKTAFDISIDNGNEDLAEILQSSSKLAAALEHHHHHH
On to B3, for which the fold enhancement of neutralization IC50 upon trimerization (against SR16m) amounted to 35000 fold.
